Patent US20040092720A1 (US Dept. of Health and Human Services, published 2004)

The binders below were run against T1, recombinant human IL-6 (human, UniProt P05231 30-212, labeled with radioactive iodine) (assay: radioiodinated IL-6 on peptide array).
T1 construct: Labeled probe in solution, added to wells that carry the synthetic peptides; also called IL-6 ligand; Interleukin-6
Target sequence in this assay (P05231 30-212 limits assumed): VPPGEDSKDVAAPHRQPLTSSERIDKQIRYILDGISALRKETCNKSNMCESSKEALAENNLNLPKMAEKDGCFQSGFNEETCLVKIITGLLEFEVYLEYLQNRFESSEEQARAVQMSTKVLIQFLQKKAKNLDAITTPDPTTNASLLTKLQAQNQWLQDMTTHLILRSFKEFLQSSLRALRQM

Counts/minute bound (counts/minute) | Binder
1850 | PRSTPSLTTKAVLL [Peptide B8]
1750 | AAGSHPSRWAGMGRRL [Peptide A6]
1820 | LTCNILTFGQLEQNVYGITIISGL [Peptide E11]
2080 | SDKAPCITDWQQEDGTVHRTYLRG [Peptide E47]

These binders were tested against T1, recombinant human IL-6 (assay: radioiodinated IL-6 on peptide array; experiment D1-D10).
Description: (§1) Synthetic peptide arrays were constructed in 96-well microtiter plates in accordance with the method set forth in WO 91/02714 (Saxinger), and used to test the binding of recombinant human IL-6 that had been labeled with radioactive iodine (radiolabeling by standard methods). After incubating the radiolabeled IL-6 ligand in a well with each synthetic peptide, a washing step was performed to remove unbound label, and the relative level of radioactivity remaining in each well of the plate was evaluated to determine the relative affinity of each peptide for IL-6 ligand.

Counts/minute bound [counts/minute] | Binder
32000 | TFLVAGGSLAFGTLLCIAIVL [Peptide D4]
4970 | ALKEGKTSMHPPYSLGQLVPE [Peptide D10]
4520 | VQDSSSVPLPTFLVAGGSLAF [Peptide D2]
144000 | FGTLLCIAIVLRFKKTWKLRA [Peptide D6]
52500 | CIAIVLRFKKTWKLRALKEGK [Peptide D7]
5530 | TWKLRALKEGKTSMHPPYSLG [Peptide D9]
19800 | SVPLPTFLVAGGSLAFGTLLC [Peptide D3]
4000 | ATSLPVQDSSSVPLPTFLVAG [Peptide D1]
20400 | LRFKKTWKLRALKEGKTSMHP [Peptide D8]
159000 | GGSLAFGTLLCIAIVLRFKKT (also called D11; D27) [Peptide D5]

What follows are binders tested against T1, recombinant human IL-6 (assay: radioiodinated IL-6 on peptide array; experiment D11-D57).
Description: as §1

Counts/minute bound [counts/minute] | Binder
12400 | LCIAIVLRFKKT [Peptide D36]
24000 | AFGTLLCIAIVLRFKKT [Peptide D31]
15700 | GTLLCIAIVLRFKKT [Peptide D33]
4880 | AIVLRFKKT [Peptide D39]
6800 | IAIVLRFKKT [Peptide D38]
15500 | LLCIAIVLRFKKT [Peptide D35]
4450 | IVLRFKKT [Peptide D40]
21800 | FGTLLCIAIVLRFKKT [Peptide D32]
2550 | VLRFKKT (also called VLRFKKT) [Peptide D41]
8350 | CIAIVLRFKKT [Peptide D37]
12400 | TLLCIAIVLRFKKT [Peptide D34]
